Test results taken from IntAct's records for PubMed 23706742.

B1: GTP-binding protein Di-Ras1 (Mus musculus), Q91Z61 (parent)
chain: MPEQSNDYRVVVFGAGGVGKSSLVLRFVKGTFRDTYIPTIEDTYRQVISCDKSVCTLQITDTTGSHQFPAMQRLSISKGHAFILVFSVTSKQSLDELSPIYKLIVQIKGSVEDIPIMLVGNKCDETQREVHTREAQAVAQEWKCAFMETSAKMNYNVKELFQELLTLETRRSVSLSVDGKRSSKQKRADRIKGKCALM
B2: Phosphatidylinositol 4,5-bisphosphate 3-kinase catalytic subunit beta isoform (Mus musculus), Q8BTI9 (parent)
chain: MPPAMADNLDIWAVDSQIASDGAISVDFLLPTGIYIQLEVPREATISYIKQMLWKQVHNYPMFNLLMDIDSYMFACVNQTAVYEELEDETRRLCDVRPFLPVLKLVTRSCDPAEKLDSKIGVLIGKGLHEFDALKDPEVNEFRRKMRKFSEAKIQSLVGLSWIDWLKHTYPPEHEPSVLENLEDKLYGGKLVVAVHFENSQDVFSFQVSPNLNPIKINELAIQKRLTIRGKEDEASPCDYVLQVSGRVEYVFGDHPLIQFQYIRNCVMNRTLPHFILVECCKIKKMYEQEMIAIEAAINRNSSNLPLPLPPKKTRVISHIWDNNNPFQITLVKGNKLNTEETVKVHVRAGLFHGTELLCKTVVSSEISGKNDHIWNEQLEFDINICDLPRMARLCFAVYAVLDKVKTKKSTKTINPSKYQTIRKAGKVHYPVAWVNTMVFDFKGQLRSGDVILHSWSSFPDELEEMLNPMGTVQTNPYAENATALHITFPENKKQPCYYPPFDKIIEKAAELASGDSANVSSRGGKKFLAVLKEILDRDPLSQLCENEMDLIWTLRQDCRENFPQSLPKLLLSIKWNKLEDVAQLQALLQIWPKLPPREALELLDFNYPDQYVREYAVGCLRQMSDEELSQYLLQLVQVLKYEPFLDCALSRFLLERALDNRRIGQFLFWHLRSEVHTPAVSVQFGVILEAYCRGSVGHMKVLSKQVEALNKLKTLNSLIKLNAVKLSRAKGKEAMHTCLKQSAYREALSDLQSPLNPCVILSELYVEKCKYMDSKMKPLWLVYSSRAFGEDSVGVIFKNGDDLRQDMLTLQMLRLMDLLWKEAGLDLRMLPYGCLATGDRSGLIEVVSTSETIADIQLNSSNVAATAAFNKDALLNWLKEYNSGDDLDRAIEEFTLSCAGYCVASYVLGIGDRHSDNIMVKKTGQLFHIDFGHILGNFKSKFGIKRERVPFILTYDFIHVIQQGKTGNTEKFGRFRQCCEDAYLILRRHGNLFITLFALMLTAGLPELTSVKDIQYLKDSLALGKSEEEALKQFKQKFDEALRESWTTKVNWMAHTVRKDYRS

Variants of: B1
Settings: with pk3cb_mouse Pik3cb

| Variant | effect of a mutation on the interaction |
| --- | --- |
| I37D | decreasing interaction strength |

Variants of: B2
Settings: with rac1_mouse Rac1, P63001

| Variant | effect of a mutation on the interaction |
| --- | --- |
| Y187A | disrupting interaction strength |
| V192S | disrupting interaction strength |
| V192K | disrupting interaction strength |
| T227D | decreasing interaction strength |
| D202A | disrupting interaction strength |
| A194S | decreasing interaction strength |
| A194K | disrupting interaction strength |
| Q223D | decreasing interaction strength |
| K190A | decreasing interaction strength |
| S205D;K224A | decreasing interaction strength |
| E183A | decreasing interaction strength |
| R229A | disrupting interaction strength |
| Q207D | decreasing interaction strength |
| V203S | disrupting interaction strength |
| V203K | disrupting interaction strength |
| K231A | decreasing interaction strength |
| K185A | decreasing interaction strength |
| E219A | decreasing interaction strength |
| L186A | disrupting interaction strength |

Variants of: B2
Settings: with cdc42_mouse Cdc42, P60766
Sequence of cdc42_mouse Cdc42, P60766 (P60766 whole entry, looked up): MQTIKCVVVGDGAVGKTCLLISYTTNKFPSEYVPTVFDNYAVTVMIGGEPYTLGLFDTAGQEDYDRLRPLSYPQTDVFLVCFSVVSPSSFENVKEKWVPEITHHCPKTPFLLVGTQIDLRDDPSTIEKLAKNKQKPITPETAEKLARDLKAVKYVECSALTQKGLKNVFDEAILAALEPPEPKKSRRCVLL

| Variant | effect of a mutation on the interaction |
| --- | --- |
| Y187A | disrupting interaction strength |
| V192S | disrupting interaction strength |
| V192K | disrupting interaction strength |
| T227D | disrupting interaction strength |
| D202A | disrupting interaction strength |
| A194S | decreasing interaction strength |
| A194K | disrupting interaction strength |
| Q223D | decreasing interaction strength |
| K190A | decreasing interaction strength |
| S205D;K224A | decreasing interaction strength |
| E183A | decreasing interaction strength |
| R229A | disrupting interaction strength |
| Q207D | decreasing interaction strength |
| V203S | disrupting interaction strength |
| V203K | disrupting interaction strength |
| K231A | disrupting interaction strength |
| K185A | decreasing interaction strength |
| E219A | decreasing interaction strength |
| L186A | disrupting interaction strength |

Variants of: B2
Settings: with cdc42_mouse Cdc42, P60766
Remark: another data set of the same source

| Variant | effect of a mutation on the interaction |
| --- | --- |
| S205D;K224A | disrupting interaction strength |

Variants of: B2
Settings: with rash_mouse Hras

| Variant | effect of a mutation on the interaction |
| --- | --- |
| S205D;K224A | disrupting interaction strength |

Variants of: B2
Settings: with rac1_mouse Rac1, P63001
Remark: another data set of the same source

| Variant | effect of a mutation on the interaction |
| --- | --- |
| S205D;K224A | disrupting interaction |

Variants of: B2
Settings: with cdc42_mouse Cdc42, P60766
Remark: another data set of the same source

| Variant | effect of a mutation on the interaction |
| --- | --- |
| S205D;K224A | disrupting interaction |

Variants of: B2
Settings: with rac1_mouse Rac1, P63001
Remark: another data set of the same source

| Variant | effect of a mutation on the interaction |
| --- | --- |
| S205D;V244A | disrupting interaction strength |
